Test results: article PMC7721913 (The Journal of Cell Biology, 2020)

B1: WT KIF5A: kinesin heavy chain KIF5A (protein, UniProt Q6QLM7 2-1027, looked up)
Kinesin heavy chain isoform 5A: AETNNECSIKVLCRFRPLNQAEILRGDKFIPIFQGDDSVIIGGKPYVFDRVFPPNTTQEQVYHACAMQIVKDVLAGYNGTIFAYGQTSSGKTHTMEGKLHDPQLMGIIPRIARDIFNHIYSMDENLEFHIKVSYFEIYLDKIRDLLDVTKTNLSVHEDKNRVPFVRGCTERFVSSPEEILDVIDEGKSNRHVAVTNMNEHSSRSHSIFLINIKQENIETEQKLSGKLYLADLAGSEKVSKTGAEGAVLDEAKNINKSLSALGNVISALAEGTKSYVPYRDSKMTRILQDSLGGNCRTTMFICCSPSSYNDAETKSTLMFGQRAKTIKNTASVNLELTAEQWKKKYEKEKEKTKAQKETIAKLEAELSRWRNGENVPETERLAGEDSALAAEICEETPVNDNSSIVVRIAPEERQKYEEEIRRLYKQLDDKDDEINQQSQLIEKLKQQMLDQEELLVSTRGDNEKVQRELSHLQSENDAAKEEVKEVLQALEELAVNYDQKSQEVEEKSQQNQLLVDELSQKVATMLSLESEPQRLQEVSGHQRKRIAEVLNGLMKDLSEFSVIVGNGEIKLPVEISGAIEEEFTVARLYISKIKSEVKSVVKRCRQLENLQVECHRKMEVTGRELSSCQLLISQHEAKIRSLTEYMQTVELKKRHLEESYDSLSDELAKLQAQETVHEVALKDKEPDTQDAEEVKKALELQMENHREAHHRQLARLRDEINEKQKTIDELKDLDQKLQLELEKLQADYERLKNEENEKSAKLQELTFLYERHEQSKQDLKGLEETVARELQTLHNLRKLFVQDVTTRVKKSAEMEPEDSGGIHSQKQKISFLENNLEQLTEVHKQLVRDNADLRCELPKLEKRLRATAERVKALEGALKEAKEGAMKDKRRYQQEVDRIKEAVRYKSSGKRGHSAQIAKPVRPGHYPASSPTNPYGTRSPECISYTNNLFQNYQNLHLQAAPSSTSDVYFASNGATSVAPLASYQKANTDNGNATDINDNRSDLPCGYEAEDPAKLFPLHQETAAS
B2: KLC1: kinesin light chain 1 (protein)
chain: MHDNMSTMVYMKEEKLEKLTQDEIISKTKQVIQGLEALKNEHNSILQSLLETLKCLKKDDESNLVEEKSSMIRKSLEMLELGLSEAQVMMALSNHLNAVESEKQKLRAQVRRLCQENQWLRDELANTQQKLQKSEQSVAQLEEEKKHLEFMNQLKKYDDDISPSEDKDSDSSKEPLDDLFPNDEDDPGQGIQQQHSSAAAAAQQGGYEIPARLRTLHNLVIQYASQGRYEVAVPLCKQALEDLEKTSGHDHPDVATMLNILALVYRDQNKYKDAANLLNDALAIREKTLGRDHPAVAATLNNLAVLYGKRGKYKEAEPLCKRALEIREKVLGKDHPDVAKQLNNLALLCQNQGKYEEVEYYYQRALEIYQTKLGPDDPNVAKTKNNLASCYLKQGKFKQAETLYKEILTRAHEREFGSVDDENKPIWMHAEEREECKGKQKDGSSFGEYGGWYKACKVDSPTVTTTLKNLGALYRRQGKFEAAETLEEAALRSRKQGLDNVHKQRVAEVLNDPENVEKRRSRESLNVDVVKYESGPDGGEEVSMSVEWNGMRKMKLGLVK
B3: KIF3C: kinesin transporting RNA granules in neurons (protein, UniProt O55165 1-796, looked up)
Kinesin-like protein KIF3C: MASKTKASEALKVVARCRPLSRKEEAAGHEQILTMDVKLGQVTLRNPRAAPGELPKTFTFDAVYDASSKQADLYDETVRPLIDSVLQGFNGTVFAYGQTGTGKTYTMQGTWVEPELRGVIPNAFEHIFTHISRSQNQQYLVRASYLEIYQEEIRDLLSKEPGKRLELKENPETGVYIKDLSSFVTKNVKEIEHVMNLGNQARAVGSTHMNEVSSRSHAIFVITVECSERGSDGQDHIRVGKLNLVDLAGSERQNKAGPNTPGGPATQSTAGGGGGGGGTSGSGSSGERPKEASKINLSLSALGNVIAALAGNRSTHIPYRDSKLTRLLQDSLGGNAKTIMVATLGPASHSYDESLSTLRFANRAKNIKNKPRVNEDPKDTLLREFQEEIARLKAQLEKKGMLGKRPRRKSSRRKKAVSAPAGYPEGAVIEAWVAEEEDDNNNNHRPPQPTLEAALEKNMENYLQEQKERLEEEKAAIQDDRSLVSEEKQKLLEEKEKMLEDLKREQQATELLAAKYKAMESKLLIGGRNIMDHTNEQQKMLELKRQEIAEQKRREREMQQEMLLRDEETMELRGTYSSLQQEVEVKTKKLKKLYAKLQAVKAEIQDQHEEYIRVRQDLEEAQNEQTRELKLKYLIIENFIPPEEKNKIMNRLFLDCEEEQWKFQPLVPAGVNNSQMKKRPTSAVGYKRPISQYARVAMAMGSHPRYRAENIMFLELDVSPPAIFEMEFSHDQEQDPRVLHMERLMRLDSFLERPSTSKVRKSRSWCQSPQRPPPPSTVHASMASAPLHPATVVDHD
B4: KIF5C: kinesin heavy chain KIF5C (protein, UniProt O60282 1-957, looked up)
Kinesin heavy chain isoform 5C: MADPAECSIKVMCRFRPLNEAEILRGDKFIPKFKGDETVVIGQGKPYVFDRVLPPNTTQEQVYNACAKQIVKDVLEGYNGTIFAYGQTSSGKTHTMEGKLHDPQLMGIIPRIAHDIFDHIYSMDENLEFHIKVSYFEIYLDKIRDLLDVSKTNLAVHEDKNRVPYVKGCTERFVSSPEEVMDVIDEGKANRHVAVTNMNEHSSRSHSIFLINIKQENVETEKKLSGKLYLVDLAGSEKVSKTGAEGAVLDEAKNINKSLSALGNVISALAEGTKTHVPYRDSKMTRILQDSLGGNCRTTIVICCSPSVFNEAETKSTLMFGQRAKTIKNTVSVNLELTAEEWKKKYEKEKEKNKTLKNVIQHLEMELNRWRNGEAVPEDEQISAKDQKNLEPCDNTPIIDNIAPVVAGISTEEKEKYDEEISSLYRQLDDKDDEINQQSQLAEKLKQQMLDQDELLASTRRDYEKIQEELTRLQIENEAAKDEVKEVLQALEELAVNYDQKSQEVEDKTRANEQLTDELAQKTTTLTTTQRELSQLQELSNHQKKRATEILNLLLKDLGEIGGIIGTNDVKTLADVNGVIEEEFTMARLYISKMKSEVKSLVNRSKQLESAQMDSNRKMNASERELAACQLLISQHEAKIKSLTDYMQNMEQKRRQLEESQDSLSEELAKLRAQEKMHEVSFQDKEKEHLTRLQDAEEMKKALEQQMESHREAHQKQLSRLRDEIEEKQKIIDEIRDLNQKLQLEQEKLSSDYNKLKIEDQEREMKLEKLLLLNDKREQAREDLKGLEETVSRELQTLHNLRKLFVQDLTTRVKKSVELDNDDGGGSAAQKQKISFLENNLEQLTKVHKQLVRDNADLRCELPKLEKRLRATAERVKALESALKEAKENAMRDRKRYQQEVDRIKEAVRAKNMARRAHSAQIAKPIRPGHYPASSPTAVHAIRGGGGSSSNSTHYQK
B5: KLC2: kinesin light chain 2 (protein, UniProt Q9H0B6 1-622, looked up)
Kinesin light chain 2: MAMMVFPREEKLSQDEIVLGTKAVIQGLETLRGEHRALLAPLVAPEAGEAEPGSQERCILLRRSLEAIELGLGEAQVILALSSHLGAVESEKQKLRAQVRRLVQENQWLREELAGTQQKLQRSEQAVAQLEEEKQHLLFMSQIRKLDEDASPNEEKGDVPKDTLDDLFPNEDEQSPAPSPGGGDVSGQHGGYEIPARLRTLHNLVIQYASQGRYEVAVPLCKQALEDLEKTSGHDHPDVATMLNILALVYRDQNKYKEAAHLLNDALAIREKTLGKDHPAVAATLNNLAVLYGKRGKYKEAEPLCKRALEIREKVLGKFHPDVAKQLSNLALLCQNQGKAEEVEYYYRRALEIYATRLGPDDPNVAKTKNNLASCYLKQGKYQDAETLYKEILTRAHEKEFGSVNGDNKPIWMHAEEREESKDKRRDSAPYGEYGSWYKACKVDSPTVNTTLRSLGALYRRQGKLEAAHTLEDCASRNRKQGLDPASQTKVVELLKDGSGRRGDRRSSRDMAGGAGPRSESDLEDVGPTAEWNGDGSGSLRRSGSFGKLRDALRRSSEMLVKKLQGGTPQEPPNPRMKRASSLNFLNKSVEEPTQPGGTGLSDSRTLSSSSMDLSRRSSLVG

How the values were obtained:
SFPQ [1] = experiment: PRM-based quantification of KIF5 and KLC in SFPQ immunoprecipitations; type: binding, rat; details: KIF5A vs KIF5B or KIF5C, KLC1 vs KLC2; three independent experiments
[2] = system: CB and distal axon compartments of DRG neurons; experiment: Western blot of KIF5 and KLC in cell body and distal axon lysates; type: cell-based, rat; details: Campenot CB vs distal axon lysates
SFPQ [3] = experiment: Coimmunoprecipitation of endogenous SFPQ from DRG lysate, Western blot; type: binding, rat; details: DRG sensory neuron lysate

| Molecule | relative abundance in SFPQ immunoprecipitate (in words) (SFPQ [1]) | compartment localization (in words) [2] | coimmunoprecipitation with SFPQ (in words) (SFPQ [3]) |
| --- | --- | --- | --- |
| B1 | approximately twice as abundant | localize to both CB and distal axon compartments | preferentially coimmunoprecipitates |
| B2 | approximately twice as abundant | localize to both CB and distal axon compartments | preferentially coimmunoprecipitates |
| B3 | – | – | none of these kinesins significantly coimmunoprecipitates with SFPQ |
| B4 | – | localize to both CB and distal axon compartments | – |
| B5 | – | localize to both CB and distal axon compartments | – |
